These results are taken from PMC7017188.

pIC50: −log10 of the molar value.

The target of this assay is His-tagged eukaryotic initiation factor 6 (eIF6), full length recombinant (UniProt P56537). Kind of assay: AlphaScreen or HTRF; competition: serial dilution of non-biotinylated 60S against the optimised assay (eIF6 75 nM, 60S-Bio 0.5 nM); PBS pH 7.4, 5 mM MgCl2, 0.2% BSA, 0.02% Tween-20; room temperature; normalised between 100% displacement (no eIF6) and 0% displacement. (In general: Alpha assays give light when donor and acceptor beads are brought close together.)

As usually defined, the pIC50 is −log10 of the IC50, conventionally taken in molar units. On to “non-biotinylated 60S ribosomal subunit (complex)”, for which the pIC50 was 9.55.
